Experiments:
[1] = molecular target: activated Cyt2Aa2 protein (chymotrypsin-activated) (Bacillus thuringiensis subsp. darmstadiensis); assay: SDS-PAGE ladder pattern of unheated sample with immunodetection
[2] = molecular target: Cyt2Aa2 protoxin (Bacillus thuringiensis subsp. darmstadiensis); assay: SDS-PAGE of unheated sample with immunodetection

Substance	stoichiometry N [1]	stoichiometry N [2]
activated Cyt2Aa2 protein (chymotrypsin-activated) (natural protein)	> 10	
Cyt2Aa2 protoxin (natural protein)		2

Source: PMC11951046
